Source: patent US20260217779A1 (Chugai, published 2026)

T1: human CXCR3 (hCXCR3) on Ba/F3 transfectant cells (human, UniProt P49682 1-368)
T1 sequence: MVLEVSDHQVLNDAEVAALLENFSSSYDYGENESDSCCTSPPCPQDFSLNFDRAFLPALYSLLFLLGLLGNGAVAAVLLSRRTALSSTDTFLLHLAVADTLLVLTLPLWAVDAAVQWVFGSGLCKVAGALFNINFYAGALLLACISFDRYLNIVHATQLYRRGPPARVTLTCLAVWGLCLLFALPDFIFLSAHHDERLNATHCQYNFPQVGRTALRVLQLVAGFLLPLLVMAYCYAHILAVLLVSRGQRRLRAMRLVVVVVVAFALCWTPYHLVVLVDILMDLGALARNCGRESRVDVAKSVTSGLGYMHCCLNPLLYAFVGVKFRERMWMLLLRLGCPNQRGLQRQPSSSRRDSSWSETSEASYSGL


Target: T1, human CXCR3 (hCXCR3) on Ba/F3 …
Test: cell-based or functional assay

Binder	Activity retention rate at 33 nM	Activity retention rate at 100 nM	Activity retention rate at 300 nM	Luminescence value at 33 nM	Luminescence value at 100 nM	Luminescence value at 300 nM
hCXCL11.0040-G1T4k.one//VHn-G1T4h.one.H435R (Fc fusion) chain 1: FAPMFKRGRCLCIGPGVKAVKVADIEKASIMYPSNNCDKIEVIITLKENKGQRCLNPKSKQARLIIKKVERKNFEPKSSDKTHTCPPCPAPELRRGPSVFLFPPKPKDTLMISRTPEVTCVVVDVSHEDPEVKFNWYVDGVEVHNAKTKPREEQYNSTYRVVSVLTVLHQDWLNGKEYKCKVSNKGLPSSIEKTISKAKGQPREPQVCTLPPSREEMTKNQVSLWCLVKGFYPSDIAVEWESNGQPENNYKTTPPVLDSDGSFFLYSKLTVDKSRWQEGNVFSCSVMHEALHNHYTQKSLSLSP chain 2: EPKSSDKTHTCPPCPAPELRRGPSVFLFPPKPKDTLMISRTPEVTCVVVDVSHEDPEVKFNWYVDGVEVHNAKTKPREEQYNSTYRVVSVLTVLHQDWLNGKEYKCKVSNKGLPSSIEKTISKAKGQPREPQVYTLPPSRCEMTKNQVSLSCAVKGFYPSDIAVEWESNGQPENNYKTTPPVLDSDGSFFLVSKLTVDKSRWQEGNVFSCSVMHEALHNRYTQKSLSLSP	81%	78%	41%	6.26e+06	1.31e+07	5.05e+06
hCXCL11.0047-G1T4k.one//VHn-G1T4h.one.H435R (Fc fusion) chain 1: FKPMFKRGRCLCIGPGVKAVKVADIEKASIMYPSNNCDKIEVIITLKENKGQRCLNPKSKQARLIIKKVERKNFEPKSSDKTHTCPPCPAPELRRGPSVFLFPPKPKDTLMISRTPEVTCVVVDVSHEDPEVKFNWYVDGVEVHNAKTKPREEQYNSTYRVVSVLTVLHQDWLNGKEYKCKVSNKGLPSSIEKTISKAKGQPREPQVCTLPPSREEMTKNQVSLWCLVKGFYPSDIAVEWESNGQPENNYKTTPPVLDSDGSFFLYSKLTVDKSRWQEGNVFSCSVMHEALHNHYTQKSLSLSP chain 2: EPKSSDKTHTCPPCPAPELRRGPSVFLFPPKPKDTLMISRTPEVTCVVVDVSHEDPEVKFNWYVDGVEVHNAKTKPREEQYNSTYRVVSVLTVLHQDWLNGKEYKCKVSNKGLPSSIEKTISKAKGQPREPQVYTLPPSRCEMTKNQVSLSCAVKGFYPSDIAVEWESNGQPENNYKTTPPVLDSDGSFFLVSKLTVDKSRWQEGNVFSCSVMHEALHNRYTQKSLSLSP	5%	22%	52%	391000	3.72e+06	6.48e+06
hCXCL11.0044-G1T4k.one//VHn-G1T4h.one.H435R (Fc fusion) chain 1: FGPMFKRGRCLCIGPGVKAVKVADIEKASIMYPSNNCDKIEVIITLKENKGQRCLNPKSKQARLIIKKVERKNFEPKSSDKTHTCPPCPAPELRRGPSVFLFPPKPKDTLMISRTPEVTCVVVDVSHEDPEVKFNWYVDGVEVHNAKTKPREEQYNSTYRVVSVLTVLHQDWLNGKEYKCKVSNKGLPSSIEKTISKAKGQPREPQVCTLPPSREEMTKNQVSLWCLVKGFYPSDIAVEWESNGQPENNYKTTPPVLDSDGSFFLYSKLTVDKSRWQEGNVFSCSVMHEALHNHYTQKSLSLSP chain 2: EPKSSDKTHTCPPCPAPELRRGPSVFLFPPKPKDTLMISRTPEVTCVVVDVSHEDPEVKFNWYVDGVEVHNAKTKPREEQYNSTYRVVSVLTVLHQDWLNGKEYKCKVSNKGLPSSIEKTISKAKGQPREPQVYTLPPSRCEMTKNQVSLSCAVKGFYPSDIAVEWESNGQPENNYKTTPPVLDSDGSFFLVSKLTVDKSRWQEGNVFSCSVMHEALHNRYTQKSLSLSP	68%	76%	72%	5.24e+06	1.27e+07	8.9e+06
hCXCL11.0042-G1T4k.one//VHn-G1T4h.one.H435R (Fc fusion) chain 1: FEPMFKRGRCLCIGPGVKAVKVADIEKASIMYPSNNCDKIEVIITLKENKGQRCLNPKSKQARLIIKKVERKNFEPKSSDKTHTCPPCPAPELRRGPSVFLFPPKPKDTLMISRTPEVTCVVVDVSHEDPEVKFNWYVDGVEVHNAKTKPREEQYNSTYRVVSVLTVLHQDWLNGKEYKCKVSNKGLPSSIEKTISKAKGQPREPQVCTLPPSREEMTKNQVSLWCLVKGFYPSDIAVEWESNGQPENNYKTTPPVLDSDGSFFLYSKLTVDKSRWQEGNVFSCSVMHEALHNHYTQKSLSLSP chain 2: EPKSSDKTHTCPPCPAPELRRGPSVFLFPPKPKDTLMISRTPEVTCVVVDVSHEDPEVKFNWYVDGVEVHNAKTKPREEQYNSTYRVVSVLTVLHQDWLNGKEYKCKVSNKGLPSSIEKTISKAKGQPREPQVYTLPPSRCEMTKNQVSLSCAVKGFYPSDIAVEWESNGQPENNYKTTPPVLDSDGSFFLVSKLTVDKSRWQEGNVFSCSVMHEALHNRYTQKSLSLSP	61%	67%	58%	4.7e+06	1.12e+07	7.23e+06
hCXCL11.0046-G1T4k.one//VHn-G1T4h.one.H435R (Fc fusion) chain 1: FIPMFKRGRCLCIGPGVKAVKVADIEKASIMYPSNNCDKIEVIITLKENKGQRCLNPKSKQARLIIKKVERKNFEPKSSDKTHTCPPCPAPELRRGPSVFLFPPKPKDTLMISRTPEVTCVVVDVSHEDPEVKFNWYVDGVEVHNAKTKPREEQYNSTYRVVSVLTVLHQDWLNGKEYKCKVSNKGLPSSIEKTISKAKGQPREPQVCTLPPSREEMTKNQVSLWCLVKGFYPSDIAVEWESNGQPENNYKTTPPVLDSDGSFFLYSKLTVDKSRWQEGNVFSCSVMHEALHNHYTQKSLSLSP chain 2: EPKSSDKTHTCPPCPAPELRRGPSVFLFPPKPKDTLMISRTPEVTCVVVDVSHEDPEVKFNWYVDGVEVHNAKTKPREEQYNSTYRVVSVLTVLHQDWLNGKEYKCKVSNKGLPSSIEKTISKAKGQPREPQVYTLPPSRCEMTKNQVSLSCAVKGFYPSDIAVEWESNGQPENNYKTTPPVLDSDGSFFLVSKLTVDKSRWQEGNVFSCSVMHEALHNRYTQKSLSLSP	10%	36%	65%	760000	6.04e+06	8.05e+06
hCXCL11.0048-G1T4k.one//VHn-G1T4h.one.H435R (Fc fusion) chain 1: FLPMFKRGRCLCIGPGVKAVKVADIEKASIMYPSNNCDKIEVIITLKENKGQRCLNPKSKQARLIIKKVERKNFEPKSSDKTHTCPPCPAPELRRGPSVFLFPPKPKDTLMISRTPEVTCVVVDVSHEDPEVKFNWYVDGVEVHNAKTKPREEQYNSTYRVVSVLTVLHQDWLNGKEYKCKVSNKGLPSSIEKTISKAKGQPREPQVCTLPPSREEMTKNQVSLWCLVKGFYPSDIAVEWESNGQPENNYKTTPPVLDSDGSFFLYSKLTVDKSRWQEGNVFSCSVMHEALHNHYTQKSLSLSP chain 2: EPKSSDKTHTCPPCPAPELRRGPSVFLFPPKPKDTLMISRTPEVTCVVVDVSHEDPEVKFNWYVDGVEVHNAKTKPREEQYNSTYRVVSVLTVLHQDWLNGKEYKCKVSNKGLPSSIEKTISKAKGQPREPQVYTLPPSRCEMTKNQVSLSCAVKGFYPSDIAVEWESNGQPENNYKTTPPVLDSDGSFFLVSKLTVDKSRWQEGNVFSCSVMHEALHNRYTQKSLSLSP	52%	75%	72%	3.97e+06	1.25e+07	8.95e+06
hCXCL11.0045-G1T4k.one//VHn-G1T4h.one.H435R (Fc fusion) chain 1: FHPMFKRGRCLCIGPGVKAVKVADIEKASIMYPSNNCDKIEVIITLKENKGQRCLNPKSKQARLIIKKVERKNFEPKSSDKTHTCPPCPAPELRRGPSVFLFPPKPKDTLMISRTPEVTCVVVDVSHEDPEVKFNWYVDGVEVHNAKTKPREEQYNSTYRVVSVLTVLHQDWLNGKEYKCKVSNKGLPSSIEKTISKAKGQPREPQVCTLPPSREEMTKNQVSLWCLVKGFYPSDIAVEWESNGQPENNYKTTPPVLDSDGSFFLYSKLTVDKSRWQEGNVFSCSVMHEALHNHYTQKSLSLSP chain 2: EPKSSDKTHTCPPCPAPELRRGPSVFLFPPKPKDTLMISRTPEVTCVVVDVSHEDPEVKFNWYVDGVEVHNAKTKPREEQYNSTYRVVSVLTVLHQDWLNGKEYKCKVSNKGLPSSIEKTISKAKGQPREPQVYTLPPSRCEMTKNQVSLSCAVKGFYPSDIAVEWESNGQPENNYKTTPPVLDSDGSFFLVSKLTVDKSRWQEGNVFSCSVMHEALHNRYTQKSLSLSP	61%	75%	67%	4.67e+06	1.26e+07	8.3e+06
hCXCL11.0041-G1T4k.one//VHn-G1T4h.one.H435R (Fc fusion) chain 1: FDPMFKRGRCLCIGPGVKAVKVADIEKASIMYPSNNCDKIEVIITLKENKGQRCLNPKSKQARLIIKKVERKNFEPKSSDKTHTCPPCPAPELRRGPSVFLFPPKPKDTLMISRTPEVTCVVVDVSHEDPEVKFNWYVDGVEVHNAKTKPREEQYNSTYRVVSVLTVLHQDWLNGKEYKCKVSNKGLPSSIEKTISKAKGQPREPQVCTLPPSREEMTKNQVSLWCLVKGFYPSDIAVEWESNGQPENNYKTTPPVLDSDGSFFLYSKLTVDKSRWQEGNVFSCSVMHEALHNHYTQKSLSLSP chain 2: EPKSSDKTHTCPPCPAPELRRGPSVFLFPPKPKDTLMISRTPEVTCVVVDVSHEDPEVKFNWYVDGVEVHNAKTKPREEQYNSTYRVVSVLTVLHQDWLNGKEYKCKVSNKGLPSSIEKTISKAKGQPREPQVYTLPPSRCEMTKNQVSLSCAVKGFYPSDIAVEWESNGQPENNYKTTPPVLDSDGSFFLVSKLTVDKSRWQEGNVFSCSVMHEALHNRYTQKSLSLSP	25%	56%	42%	1.92e+06	9.37e+06	5.16e+06
